Kd data for one molecule are collected here from EP3816180A1 (Max-Planck-Gesellschaft zur Förderung der Wissenschaften …, dated 2021).

The target in this assay is T1, cpHaloΔ9mer.
T1 construct: Large fragment of split, circularly permuted HaloTag7; Made in E. coli; also called cpHalo_9mer; cpHalo156-141
Nature of the assay: ITC; 9mer peptide (30 mM) titrated into cpHaloΔ9mer (0.6 mM), HEPES 50 mM pH 7.3, NaCl 50 mM; three independent measurements.

T1 sequence (chain, as listed by the source mutant): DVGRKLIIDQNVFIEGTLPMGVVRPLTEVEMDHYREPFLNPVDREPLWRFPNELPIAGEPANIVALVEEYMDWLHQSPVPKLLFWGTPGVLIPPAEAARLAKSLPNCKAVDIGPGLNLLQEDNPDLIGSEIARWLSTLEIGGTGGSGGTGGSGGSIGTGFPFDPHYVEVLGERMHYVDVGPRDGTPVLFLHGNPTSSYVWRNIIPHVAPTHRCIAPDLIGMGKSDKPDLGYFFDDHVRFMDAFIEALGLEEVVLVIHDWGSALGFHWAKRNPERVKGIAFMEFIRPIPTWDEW

B1: 9mer peptide (peptide)
peptide: ARETFQAFR
notes: Free peptide titrated in ITC; also called PEP1
As for B1, the Kd stood at 5.3 mM.
